Source: the DeepSol protein solubility set

Assay: soluble on expression in E. coli; label from the status in PepcDB or PDB records

Sequence	soluble on expression in E. coli
MGSDKIHHHHHHMELQLQNLALSFKNKPNVIHDISLTMNGGSIVGIVAPNGTGKTTLLRLILNDLKPQAGKVLVDGKSYGSQKQSLALHRQMCLFPVQDDLYPDLSGKAHLEYYAKLWHNRSKSVKQIINVLDMRDYINQPVRTYSMGMKQRLCFGMVMAANTPIMLLDEFMNGLDTINVARMSRILRGLRAEGKLIITVSHLLNNLQGYADLIYFMRDGKIIKTIDQHEQQPLYVQVAEENASRLPRMPWEHYPNGMLVLPIQKLPGEHFNQLLLGLAAHHIPFKLGPLDLDTYFNEFYETDQ	not soluble
MAKIDIIDNYETLLISVEEIRASLESLHAWLDKDIDWDSQCDWYDFISQHSSQIAILNLIMYRLDSLEVEHRSVIENTMKGK	not soluble
VGSIQPDFLGSVNSSLRYKNWTLRASMDMRFGGMVAIYGSHYGTAYGYLKSSMNGVDAENGGITYTSIWDGLTYDDGIIPEAIMPGGQTINTPSGTYTIAEGGELYADLVNRGIVDPQHASSWNYWNNSWGRAAVWKNNDWFHELNYIALREVSLSYRMPGKIADKIGASGINLTLTGRNLGYLLNSLPNNFNPESLRGTQAGQFMIRSVSPYTASYTFTINATF	not soluble
MAHHHHHHMGFFKKNKRQSFNRNYEGEVQCNNIILGGTFYKHCENDLLLKNELENLVPYFNGRIFLENKEEIGKVDEILGPINEFYFSVKLKEGIRAKSFSSDTHFFIDKSQTLPLSRFLPQEKNSQSLVKKKKKKSNRDKKKNSFNQNNKKPNNYNFKGNNNRNDHNNRNDHNNRNDHNNRNDHNNRNDRNNRNNKNSFRNRSNSSRKFNNQRGRF	not soluble
NATLKGLKLSERSTTEIQLLAEQAITVSKQEVKEFTYKVESNKQFEATVKIKADLKIDPTKAMSHIENIFKDDETKKKDAQNSLTMSMGQNEALEATFTYSPATQGIFGRASFDRFTSNIKLNTKLRIQVSSTSDLMKKLLENSLTSSLKDQSFDNEGVNLFPYTLFAL	not soluble
MGSDKIHHHHHHMQMENSVTTRSRSPDAVRDSAVDRNAYQAKIDPHALKFQIFQEVLTIKREFKCCGGGCCGCLACIGCCQQECIIETPSMGVLGIIRQRCGCMSSNYDIMDGDGNVIFQIDGPCCCMLCGCQDKEFPIKTANNGTVVGAITKKWGGCFREAFTDADTFAVNFPGDLDVKLKGVLIGATFLIDFMEFEQQSQNRNNGV	not soluble
MEKIIITATAESIEQVKALLAAGVDRIYVGEANYGLRLPHNFSYDELRQIAKLVHDAGKELTVACNALMHQDMMDQIKPFLDLMIEIAVDYLVVGDAGVFYVNKRDGYNFKLIYDTSVFVTSSRQVNFWGQHGAVESVLAREIPSAELFTLAENLEFPAEVLVYGASVIHHSKRPLLENYYHFTKIDDEVSRERGLFLAEPGDASSHYSIYEDNHGTHIFINNDIDMMSKLGELYAHGLTHWKLDGIYCPGDDFVAITKLFIQAKTLLEAGQFTQEEAEKLDQAVHAHHPAGRGLDTGFYEFDPKTVK	not soluble
MSLSDPIKIGFLAPLTGPVSSWGLPGLHGCRLWEDWLNRAGGILVGGRRYPVSIVPFDCGYDPERAMEGARHLVHTEQVKLLMMLGGDTFTPLRGFLTANKVLTSTLLPSDLSPDTRYLIAPSEVHPIYNVTGVDWLARNRPELRRVAMCSQKDALGLPSIATYRAAFEAAGVPVVKEVEYDPEMTDVATIVQPMLDAQPDVLCWCTSYTPMVHAMTEYAHAKGFSGQILSCTLDNYQRLVARTSAEFMEGALFQFPDFDDPKLARKAFFFNRPSTFFKEYNARYPGNWSAVSWEYVAILDIWHAAVEKVASVHPVSVLATMKQMDPVTHAFGPARWWGEGHHHHHH	not soluble
GMRNMQEKGVSEKEILEELKKYRSLDLKYEDGNIFGSMCSNVLPITRKIVDIFLETNLGDPGLFKGTKLLEEKAVALLGSLLNNKDAYGHIVSGGTEANLMALRCIKNIWREKRRKGLSKNEHPKIIVPITAHFSFEKGREMMDLEYIYAPIKEDYTIDEKFVKDAVEDYDVDGIIGIAGTTELGTIDNIEELSKIAKENNIYIHVDAAFGGLVIPFLDDKYKKKGVNYKFDFSLGVDSITIDPHKMGHCPIPSGGILFKDIGYKRYLDVDAPYLTETRQATILGTRVGFGGACTYAVLRYLGREGQRKIVNECMENTLYLYKKLKENNFKPVIEPILNIVAIEDEDYKEVCKKLRDRGIYVSVCNCVKALRIVVMPHIKREHIDNFIEILNSIKRD	soluble
MSIRIDRQRCIGCGKCAEICPGNLIVIDEDKKAFVRDPRDCWGCAACVKECKFSAIRYFLGAEIGGNGTTMYVEKENDEIMYWYFEKPSGEKEMIVQNLKDNTTYLEHHHHHH	not soluble
MSEPLHALARQLEQAIRASEPFQQLKRAYEDVRRDETAYRMFANVRDIQLRLHEKQMRGAAILPDEIEQAQKAMALAQQNEKLARLMALEQQMSITIAEVQQIAMKPLEELHRSFMEGR	soluble
MGSSHHHHHHSSGLVPRGSHWGSPNSSSVDKLMDTIVAVATPPGKGAIAILRLSGPDSWKIVQKHLRTRSKIVPRKAIHGWIHENGEDVDEVVVVFYKSPKSYTGEDMVEVMCHGGPLVVKKLLDLFLKSGARMAEPGEFTKRAFLNGKMDLTSAEAVRDLIEAKSETSLKLSLRNLKGGLRDFVDSLRRELIEVLAEIRVELDYPDEIETNTGEVVTRLERIKEKLTEELKKADAGILLNRGLRMVIVGKPNVGKSTLLNRLLNEDRAIVTDIPGTTRDVISEEIVIRGILFRIVDTAGVRSETNDLVERLGIERTLQEIEKADIVLFVLDASSPLDEEDRKILERIKNKRYLVVINKVDVVEKINEEEIKNKLGTDRHMVKISALKGEGLEKLEESIYRETQEIFERGSDSLITNLRQKQLLENVKGHLEDAIKSLKEGMPVDMASIDLERALNLLDEVTGRSFREDLLDTIFSNFCVGK	soluble
YEFKKRNNIPMFFGIGNVTELFDVDSNGVNASIAAIGQEIGGNILFTPEASKKCKFSIKELKTASKMLFLAKKRNSLPKDVGYDLINYKDKKFDEEFELEDVKIIEAFENEKQLLDRGSFKIRVDRKNKEINATYYVHNQPKLIIRGNDPKKIYETALRENLITKMDHAAYFGKELRNAELALKLGKKYNQDFELFYNEFWN	not soluble
MGSDKIHHHHHHMILDTAPHISSVGQVKEFFLARQPILDQNQNLIAYELLFRRAGVRAPVSAEDTRGAASIIAHTSELGIENVTGSALGFFNVNSTLLMGDLVNFLPAEKVVFEFPQTDKITPELVRRVAELAKAGYRFALDDVITLSEYIKPLLPFVEIIKIDTSVMTYADLAMLVRQFKQARKVLLADKVETLEQFQNCHELGFDYYQGYYFAKPALLSGKKLATSQLAIMELMTLVARDADTIEIEQRIKKEVSLCLSLLRLVNTPAMGVTKSIHSLSEALMVLGRRQLQRWLQIQIYVGPDPQIQFGSPLLLLAATRGKLLELVAQKLQPANRSMADIAFTVGILSLLDALFGQHMERILRQIVLSEEITEALLYRTGFYGDLLKLAEYLEKPGEAGRLLVPLLARLGLPIEELYPFQLEAFEWSNSLLPTL	not soluble
MRTLPSVLAAHLASGATTLCFAWRVTRRDGLVTGFTDHDRDLVVDGVTCKAASGISGSQSTLASGLSVTGAEVSGALSHDALSEDDLAAGLYDGAAIDHLLVNWQDPAQVLLLRRGTIGEVRAQDGVFTAEIRSLSDGLNQTRGRLLSSSCDADLGDARCGVDLTLPAHAASATVVAVEGALSLRVTGLSAFAQGAFARGRARLSSGANAGFVTEVKAHLVDAEGVLLRLWQRPPFAVAEGDGITLTAGCDKQLATCRDRFSNALNFRGFPHMPGNDFVIAVAIAGEGGYDGSLLE	soluble
MPADPRNAGKDKGNLQMELQNLLTSARIRKMEYEAIVEELEEDELKYDLFEYQDYLENYIMPYVERAYKNGSKELIGMAEEVKSIFEEIIDMIKARIEKK	not soluble
MADQKEASEAAKNREIKISSSDDEIFLVPRNVIRLSNTLNTLLVDLGLDDDEGTNAEPIPVQNVTASILKKVINWCTKHQSDPIPTEDSEKKTDGSIQDWDKKFLDIDQGTLFELILAANYLDIKGLLDVACQSVANMIKGKSPDEIRRAFNIKDDFTAEEREQIRKENAWCDD	soluble
MGSDKIHHHHHHMQFSPEQDNALKAVSAWLKEGRSPLFRLFGYAGTGKTTLARYFAETVDGSVQFTAFTGKAAQVLRSKGASNACTIHSLIYCPRGEEEVSDEVTGKKSIAPTFALNRRSAAAQAKLIIVDECSMVDEQLARDLMSFRTPILVLGDPGQLPPISGGGFFSNGVPDFLLSEIHRQARDNPIVRLAMDVREGRDIPYGNYGAARVVTRKEVHQQLVLDADQLLVGINRTRYLYNKRLRVLKGFTAAYPQAGDKLVCLRNDPAKGLLNGSLWKVMTSQKETVKPGVNLLVKPEESERGVVKIKLLKALFENPDSDISWQLKKRYDDFDYGYALTVHKAQGSQWNNVVLFDESFAFRDMSARWLYTGITRAAERLTIVR	not soluble
MLIIETLPLLRQQIRRLRMEGKRVALVPTMGNLHDGHMKLVDEAKARADVVVVSIFVNPMQFDRPEDLARYPRTLQEDCEKLNKRKVDLVFAPSVKEIYPNGTETHTYVDVPGLSTMLEGASRPGHFRGVSTIVSKLFNLVQPDIACFGEKDFQQLALIRKMVADMGFDIEIVGVPIMRAKDGLALSSRNGYLTAEQRKIAPGLYKVLSSIADKLQAGERDLDEIITIAGQELNEKGFRADDIQIRDADTLLEVSETSKRAVILVAAWLGDARLIDNKMVELA	soluble
MGSDKIHHHHHHMIMNNHRMLPDQDAWEPWSPAELSRRLSGISRPWCIVGGWALDLWHGSTMREHDDLEFTVLREDLEIFRRELSEMEFYTVNDGVLERLPPDRQPASEIFQIWCFDRTAKCWRVDMMIEPGTDDTWAYKRNPEITRPRTDMVALTADGIPYLNPSAVLLFKAKHRRPKDEQDFVNAHPKLLLSERRWLRNCLELLHPGHEWAQAL	not soluble
MGSDKIHHHHHHMTLKSRIGILAGKTAHFFLSKIGRGSTLPGKIALKCDKDILDTLAKDYDIVVVTGTNGKTLTTALTVGILKEAYGQVLTNPSGANMITGITSTFLTAKKSRNGKKIAVLEIDEASLPKITDYLKPSLFVFTNIFRDQMDRYGEIYTTYQMILDGAAKAPKATILANGDSPLFNAKTVVNPVRYYGFDTKKEAAHLAHYNTEGIVCPKCEYILQYKLNTYANLGDYICPNCGFHRPHLDYSLTQLTKISNTQAEFIIDGQDYKINVGGLYNIYNALAAVAVAEFLGVTPEQIKAGFDKSRAVFGRQETFKIGDKSCTLVLIKNPVGASQALEMIKLAPYPFTLSVLLNANYADGIDTSWIWDANFESILDMNIPQIFTGGVRHSEIARRLRVTGYNETKIEQAEKLEDILSMIEKQEADHAYILATYTAMLEFRELLASRHAVRKEMH	not soluble
NGVPSTNVNTPAPNTGQSTAQNTNTASPLPYNRATTLPAAGTEDLKKSVQALQNTLTELQALQLQTKQAHWNVSGTLWYTLHELLQDHYEGISKFADDVAERQLSVGASSDGRAITIVAASRLPEIPGGFLDDAQVIQFFTYQYETVGQRIHQRVGDVEKVDPTTANLLQEVEHIIEKYQWQMRAFLQNTPTDPNTGFDINNGKPVPLRGR	soluble
MGSDKIHHHHHHMNPINWLVLVATVAGRNGTLRVRLWRQMKAIGAAALRDGVYLLPARPELRQMLANWRDELLAADGMAHVLQVVEDDPATQAGWRALFDRSEAYQQWGEALAALLAQPPGAESDARRSLRQLRKELEAIAAIDFFAGESLKSARRQCNDAEKWLTRHYSPDEPLAVGGDIPRLELADYQQRLWATRARPWVDRVASAWLIRRFIDPAARFAWLTDVHACPAEALGFDFDGAAFTHIGERVTFEVLLASFGLEHDPALSRLGELVHALDVGGSVVPEGTGFEAVLGGSRSRIADDDLLLADISNVLDSLYAHFQEAARPQGSRAPTL	not soluble
